Test results: patent publication US10808249B2, “Methods and compositions for weed control” (Monsanto Technology LLC, priority 2011, dated 2020)

Tested on: Glyphosate-sensitive Palmer amaranth (A. palmeri R-22) plants
Assay: Palmer amaranth pre-treated with PDS trigger oligonucleotides, then norflurazon
Format: in vivo, Amaranthus palmeri
Details: mixture of oligonucleotides incl. SEQ ID NO: 2137 at 0.8 nmol, 0.5% Silwet L-77; norflurazon 675 g ai/ha 24 and 48 h later; compared with norflurazon alone
Experimental: Glyphosate-sensitive Palmer amaranth (A. palmeri R-22) plants were grown in the greenhouse (30/20 C day/night T; 14 hour photoperiod) in 4 inch square pots containing Sun Gro® Redi-Earth and 3.5 kg/cubic meter Osmocote® 14-14-14 fertilizer. Palmer amaranth plants at 5 to 10 cm in height were pre-treated with a mixture of oligonucleotides one of which was a SEQ ID NO: 2137 at 0.8 nmol comprising at least one oligonucleotide targeting PDS coding or noncoding regions, formulated in 10 millimolar sodium phosphate buffer (pH 6.8) containing 2% ammonium sulfate and 0.5% Silwet L-77. Plants were treated manually by pipetting 10 μL of polynucleotide solution on four fully expanded mature leaves, for a total of 40 microliters of solution per plant. Twenty-four and forty-eight hours later, the plants were treated with norflurazon (Solicam®, Syngenta, Greensboro, N.C.) at 675 g ai/ha, crop oil concentrate (COC) at 1% is added to the herbicide treatments. Four replications of each treatment was conducted. Plant height is determined just before ssDNA treatment and at intervals upto twelve days after herbicide treatments to determine effect of the oligonucleotide and herbicide treatments.

B1: SEQ ID NO: 2137: ssDNA trigger oligonucleotide targeting PDS, one of a mixture applied to Palmer amaranth before norflurazon (nucleic acid, listed as Amaranthus palmeri)
antisense: ACCGAUUCCUGCAGGAGAAACAUGGUUCUAAGAUGGCCUUCCUAGACGGAAACCCUCCAGAGAGGCUGUGCAUGCCUAUUGUUAAACACAUCGAGUCACUAGGUGGUGAAGUUAAACUUAACUCUCGUAUACAAAAGAUUCAGUUGGACCAGAGUGGAAGCGUGAAGAGUUUUUUGCUAAAUAACGGGAGG
  injury to the plants (FIG. 1): more injury to the plants than the norflurazon alone
